Residue numbers refer to the chain shown, from its start. In names and notes the source's numbering stands.
T1: Murine TNFR2 (mouse, UniProt P25119 23-474)
T1 construct: Expressed on transiently transfected HEK293 cells; also called mouse TNFR2; TNFR2(mu)
T1 sequence: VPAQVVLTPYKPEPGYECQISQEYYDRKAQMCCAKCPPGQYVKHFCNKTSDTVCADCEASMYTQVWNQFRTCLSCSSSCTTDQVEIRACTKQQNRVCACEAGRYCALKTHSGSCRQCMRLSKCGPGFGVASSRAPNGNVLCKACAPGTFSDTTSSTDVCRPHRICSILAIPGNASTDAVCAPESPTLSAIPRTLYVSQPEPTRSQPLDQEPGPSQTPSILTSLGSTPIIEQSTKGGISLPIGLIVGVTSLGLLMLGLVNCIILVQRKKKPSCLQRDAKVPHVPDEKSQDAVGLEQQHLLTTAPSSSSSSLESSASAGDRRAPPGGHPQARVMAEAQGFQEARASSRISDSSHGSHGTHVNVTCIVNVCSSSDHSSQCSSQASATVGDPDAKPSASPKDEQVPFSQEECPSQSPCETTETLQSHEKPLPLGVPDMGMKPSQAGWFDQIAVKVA

T2: Human TNFR2 (human, UniProt P20333 23-461)
T2 construct: On cells: HeLa-TNFR2, HT1080-Bcl2-TNFR2, transiently transfected HEK293; endogenous on Kym-1 cells; also called huTNFR2; TNFRSF1B
T2 sequence: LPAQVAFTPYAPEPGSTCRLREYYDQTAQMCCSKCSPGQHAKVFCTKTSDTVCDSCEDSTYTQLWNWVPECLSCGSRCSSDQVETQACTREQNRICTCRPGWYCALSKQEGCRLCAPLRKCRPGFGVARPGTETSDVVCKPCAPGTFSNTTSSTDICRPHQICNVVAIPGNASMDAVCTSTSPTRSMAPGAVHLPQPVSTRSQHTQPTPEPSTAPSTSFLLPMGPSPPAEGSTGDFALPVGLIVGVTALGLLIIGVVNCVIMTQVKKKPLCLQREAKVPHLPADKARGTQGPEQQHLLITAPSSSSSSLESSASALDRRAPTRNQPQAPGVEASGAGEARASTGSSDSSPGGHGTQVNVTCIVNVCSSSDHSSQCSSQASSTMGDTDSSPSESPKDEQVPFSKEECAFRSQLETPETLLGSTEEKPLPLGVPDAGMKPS

T3: Cynomolgus TNFR2 (Macaca fascicularis (cynomolgus monkey), UniProt P20333 26-461 (human entry))
T3 construct: Expressed on transiently transfected HEK293 cells; also called TNFR2-cyno; monkey TNFR2
T3 chain: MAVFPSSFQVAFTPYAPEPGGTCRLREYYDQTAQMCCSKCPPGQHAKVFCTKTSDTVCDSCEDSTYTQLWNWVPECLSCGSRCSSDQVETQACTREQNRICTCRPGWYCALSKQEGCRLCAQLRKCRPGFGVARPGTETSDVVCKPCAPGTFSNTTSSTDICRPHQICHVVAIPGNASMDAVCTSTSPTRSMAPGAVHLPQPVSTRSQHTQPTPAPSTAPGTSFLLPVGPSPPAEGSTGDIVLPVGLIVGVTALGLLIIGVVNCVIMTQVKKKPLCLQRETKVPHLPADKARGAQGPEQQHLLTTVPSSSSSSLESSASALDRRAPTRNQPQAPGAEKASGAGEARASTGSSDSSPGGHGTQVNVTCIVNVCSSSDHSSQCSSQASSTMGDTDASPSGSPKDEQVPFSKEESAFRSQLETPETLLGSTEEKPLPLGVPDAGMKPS

B1: 3×VHH:C18-Fc-GpL (Fc fusion)
VHH: DVQLVESGGGSVQTGGSLTLSCAISGSTSERYCMGWFRQAPGREREGVAATSLTGRGAQFYADSVKGRFTISLDDAKNTLYLQMDSLRPDDTAVYYCAADVGFLCGYDSDNDPFYDWGQGTQVTVSS
notes: also called 3×VHH-Fc-GpL variant of C18; hexavalent format of C18; not shown: the listing has no entry for the 3xVHH-Fc-GpL format
B2: 3xVHH:C188-Fc-GpL (Fc fusion, not shown: a dimerising Fc or GST; small tags and cut ends)
VHH: B1 VHH with M34L, A99E
notes: also called hexavalent 3×VHH-Fc-GpL construct of C188
B3: 3xVHH:C238-Fc-GpL (Fc fusion, not shown: a dimerising Fc or GST; small tags and cut ends)
VHH: QVQLVESGGGSVQPGGSLTLSCVDSGSAYLSYCMAWFRQAPGKEREGVAAIYYGGDSYYADSVKGRFTISQDHAKNTMYLQMNSLKPEDTAVYYCAADVGFICGYDSDNDPPNDWGQGTQVTVSS
notes: also called hexavalent 3×VHH-Fc-GpL construct of C238
B4: VHH:C18-Fc-GpL (Fc fusion)
VHH: B1 VHH
notes: also called VHH-Fc-GpL variant of C18; not shown: The Fc domain, the C-terminal GpL reporter and the linkers or tags of the VHH-Fc-GpL construct; No entry gives the joined chain or says which Fc variant was used
B5: VHH:C188-Fc-GpL (Fc fusion, Gaussia princeps)
chain: B1 VHH with M34L, A99E
notes: also called VHH-Fc-GpL format protein of C188; not shown: Fc domain; Gaussia princeps luciferase (GpL) reporter domain at the C-terminus of the Fc
B6: VHH:C74-Fc-GpL (Fc fusion)
VHH: DVQLVESGGGLVQSGGSLRLSCAASGFPFSSSDMTWVRQTSGSVFEWVSDINPDGQNTRYADSVKGRFIISRDNAKSTLYLQMDSLKTDDTAVYYCAADPGSSGGSLSYWGKGTLVTVSS
notes: also called VHH-Fc-GpL variant of C74; not shown: The Fc domain, the C-terminal GpL reporter and the linkers or tags of the VHH-Fc-GpL construct; No entry gives the joined chain or says which Fc variant was used
B7: VHH:C178-Fc-GpL (Fc fusion)
VHH: DVQLVESGGGLVHPGGSLRLSCAASGFTFSADDATWARQPPGKGLEWISTLYFDTEEKTYADSVKGRFIISRDIAKNTVYLQMNNLKPEDTGMYVCTATWAGGSLLRPASFGVWGQGTQVTVSS
notes: also called VHH-Fc-GpL format protein of C178; not shown: The Fc domain, the C-terminal GpL reporter and the linkers or tags of the VHH-Fc-GpL construct; No entry gives the joined chain or says which Fc variant was used
B8: VHH:C238-Fc-GpL (Fc fusion)
VHH: B3 VHH
notes: also called VHH-Fc-GpL format protein of C238; not shown: the listing has no entry for the VHH-Fc-GpL format
B9: VHH:C12-Fc-GpL (Fc fusion)
VHH: DVQLVESGGGLVQPGGSLRLSCGGSGFTFSSYGMSWVRQAPGKGLEWVSGIYDDGSVTDYADSVKGRFTISRDDAKNTVYLQMNSLKSEDTALYYCATGEDGELNYWGQGTQVTVSS
notes: also called VHH-Fc-GpL format protein of C12; not shown: The Fc domain, the C-terminal GpL reporter and the linkers or tags of the VHH-Fc-GpL construct; No entry gives the joined chain or says which Fc variant was used
B10: VHH:C36-Fc-GpL (Fc fusion)
VHH: HVQLVESGGGSVQAGGSLRLSCAASGFTFSSYYMSWVRQAPGKGLEWVSAIYSDDSDNYSDSVKGRFTISKDNAKNTLYLQMNSLKPEDTAMYYCAAIRIGTDQYKFWGQGTQVTVSS
notes: also called VHH-Fc-GpL format protein of C36; not shown: The Fc domain, the C-terminal GpL reporter and the linkers or tags of the VHH-Fc-GpL construct; No entry gives the joined chain or says which Fc variant was used
B11: VHH:C118-Fc-GpL (Fc fusion)
VHH: QVQLVESGGGSVQAGGSLRLSCAASGHTYRSNCMGWFRQAPGKEREGVAAMYTGTDWKYYADSVKGRFTISQDKAKNTLYLVMNNLKPDDTGVYYCAADFGFICGYDSDDDPYDAWGQGTQVTVSS
notes: also called VHH-Fc-GpL format protein of C118; not shown: The Fc domain, the C-terminal GpL reporter and the linkers or tags of the VHH-Fc-GpL construct; No entry gives the joined chain or says which Fc variant was used
B12: 3×VHH:C74-Fc-GpL (Fc fusion)
VHH: B6 VHH
notes: also called 3×VHH-Fc-GpL variant of C74; hexavalent format for C74; not shown: the listing has no entry for the 3xVHH-Fc-GpL format
B13: C4-IgG1(N297A)-LC:GpL-HC:scFvC4 (antibody)
light: EVKLVPRQLDIVMTQSHKFMSTSVGDRVSITCKASQDVDTAVAWYQQKPGQSPKLLIYWASTRHTGVPDRFTGSGSGTDYTLTISSVQAEDLARYYCQQYYSVPPTFGGGTKLGSEIKRTVAAPSVFIFPPSDEQLKSGTASVVCLLNNFYPREAKVQWKVDNALQSGNSQESVTEQDSKDSTYSLSSTLTLSKADYEKHKVYACEVTHQGLSSPVTKSFNRGECLEKPTENNEDFNIVAVASNFATTDLDADRGKLPGKKLPLEVLKEMEANARKAGCTRGCLICLSHIKCTPKMKKFIPGRCHTYEGDKESAQGGIGEAIVDIPEIPGFKDLEPMEQFIAQVDLCVDCTTGCLKGLANVQCSDLLKKWLPQRCATFASKIQGQVDKIKGAGGD
heavy: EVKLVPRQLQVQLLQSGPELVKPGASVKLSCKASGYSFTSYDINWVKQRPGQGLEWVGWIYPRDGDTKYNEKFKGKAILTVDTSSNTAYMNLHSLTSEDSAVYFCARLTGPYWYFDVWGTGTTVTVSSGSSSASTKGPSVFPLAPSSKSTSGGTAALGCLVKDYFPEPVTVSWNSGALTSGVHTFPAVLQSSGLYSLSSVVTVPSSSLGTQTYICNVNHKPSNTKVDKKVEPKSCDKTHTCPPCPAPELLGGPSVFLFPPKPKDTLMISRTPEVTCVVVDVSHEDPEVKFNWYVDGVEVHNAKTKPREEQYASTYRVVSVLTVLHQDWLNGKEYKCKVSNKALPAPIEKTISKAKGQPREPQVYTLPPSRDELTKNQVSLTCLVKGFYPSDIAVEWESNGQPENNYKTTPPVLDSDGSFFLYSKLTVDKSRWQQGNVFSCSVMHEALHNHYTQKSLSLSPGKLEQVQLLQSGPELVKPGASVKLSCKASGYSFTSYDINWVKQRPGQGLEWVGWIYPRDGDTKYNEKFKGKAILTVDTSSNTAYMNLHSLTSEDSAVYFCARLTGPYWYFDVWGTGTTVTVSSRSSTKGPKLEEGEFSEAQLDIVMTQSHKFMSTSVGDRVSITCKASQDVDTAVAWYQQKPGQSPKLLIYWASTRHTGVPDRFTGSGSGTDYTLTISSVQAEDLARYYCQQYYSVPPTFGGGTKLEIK
notes: copies: 2 + 2

Target: T1, Murine TNFR2
Test: equilibrium binding of 3xVHH-Fc-GpL to HEK293 cells expressing murine TNFR2 (panel head Hek-293-TNFR2-murine), 37 °C

In order of rising Kd:
1. B2  0.07 µg/mL
2. B3  0.1 µg/mL
3. B1  0.18 µg/mL

Target: T4, African green monkey TNFR2 (Chlorocebus sabaeus (African green …))
T4 construct: whole, on cells
Test: equilibrium binding of VHH-Fc-GpL to cells expressing African green monkey TNFR2, 37 C; column head Affinity (ng/ml)
Protocol: (§1) Specific binding (open circles) was obtained by subtraction of the non-specific binding values (Hek293 cells—crosses) from the binding values for transfectants expressing human TNFR2 (total binding—closed circles). Specific binding was analyzed with the “nonlinear regression to a one-site specific binding curve” function of the GraphPad Prism5 software.
(§2) The equivalent experiment was also performed using TNFR2 from different species, namely from Mus musculus (mouse), Macaca fascicularis (cynomolgus monkey), and Chlorocebus sabaeus (African green monkey) to study the ability of the VHH regions to bind to TNFR2 from different species. The ability to cross react to TNFR2 from different species can be helpful in allowing the antibodies to be studied in various models before assessment in human patients.

In order of rising Kd:
1. B4  0.06 µg/mL
2. B6  0.06 µg/mL
3. B7  0.06 µg/mL
4. B9  0.08 µg/mL
5. B10  0.08 µg/mL
6. B11  0.1 µg/mL
7. B5  0.15 µg/mL
8. B8  0.17 µg/mL

Target: T1, Murine TNFR2
Test: equilibrium binding of VHH-Fc-GpL to cells expressing mouse TNFR2, 37 C; column head Affinity (ng/ml)
Protocol: as §1, §2

In order of falling Kd:
1. B8  1.05 µg/mL
2. B5  0.95 µg/mL

Target: T2, Human TNFR2
Test: binding of 3xVHH-Fc-GpL to HEK293 cells transiently transfected with TNFR2; empty-vector cells as unspecific binding

In order of rising Kd:
1. B2  0.005 µg/mL
2. B1  0.006 µg/mL
3. B3  0.008 µg/mL
4. B12  0.035 µg/mL

Target: T2, Human TNFR2
Test: equilibrium binding of 3xVHH-Fc-GpL to HEK293 cells expressing human TNFR2 (panel head Hek-293-TNFR2-human), 37 °C

In order of falling Kd:
1. B3  0.006 µg/mL
2. B2  0.003 µg/mL
3. B1  0.001 µg/mL
4. B12  0.001 µg/mL

Target: T2, Human TNFR2
Test: equilibrium binding of VHH-Fc-GpL to cells expressing human TNFR2, 37 °C; HEK293 cells as unspecific binding; one-site fit of specific binding

In order of rising Kd:
1. B6  0.08 µg/mL
2. B11  0.13 µg/mL
3. B4  0.23 µg/mL
4. B5  0.57 µg/mL
5. B8  0.67 µg/mL
6. B9  0.8 µg/mL
7. B7  0.9 µg/mL
8. B10  3.2 µg/mL

Target: T3, Cynomolgus TNFR2
Test: equilibrium binding of VHH-Fc-GpL to cells expressing cynomolgus TNFR2, 37 C
Protocol: as §1, §2

B6: no binding.
B7: no binding.
B9: no binding.

Target: T1, Murine TNFR2
Test: equilibrium binding of VHH-Fc-GpL to cells expressing mouse TNFR2, 37 C
Protocol: as §1, §2

B6: no binding.
B7: no binding.
B9: no binding.
B10: no binding.
B11: no binding.

Target: T2, Human TNFR2
Test: specific binding of the GpL fusion protein to HeLa-TNFR2 cells after 8 h, HeLa values subtracted, luciferase activity normalised to GpL per binding site
Protocol: HeLa-TNFR2 cells were pretreated with 3-10 μg/ml of the indicated anti-TNFR2 antibodies or remained untreated. […] Supernatants of HeLa-TNFR2 cells were then analyzed for TNFR2-induced IL8 production (B) and repeatedly washed cells (HeLa, and HeLa-TNFR2) were analyzed for cell-associated GpL activity. Specific binding to TNFR2, shown in (A) was calculated by subtraction of the unspecific binding values obtained from the HeLa cells from the total binding values derived of the HeLa-TNFR2 cells. […] The latter was transformed into “occupied receptors per cells” by help of the number of cells in the assay and the measured specific activity (RLU/molecule) of the GpL constructs.
Supernatants of HeLa-TNFR2 were then analyzed for TNFR2-induced IL8 production with the results shown in (B). Repeatedly washed cells (HeLa, and HeLa-TNFR2) were analyzed for cell-associated GpL activity. Specific binding to TNFR2, was calculated by subtraction of the unspecific binding values obtained from the HeLa cells from the total binding values derived of the HeLa-TNFR2 cells with the results obtained shown in (A).

B13: binds.

Target: T3, Cynomolgus TNFR2
Test: equilibrium binding of VHH-Fc-GpL to cells expressing cynomolgus TNFR2, 37 C; column head Affinity (ng/ml)
Protocol: as §1, §2

In order of rising Kd:
1. B4  0.05 µg/mL
2. B8  0.2 µg/mL
3. B5  0.45 µg/mL

From patent publication US20240190983A1 (JULIUS MAXIMILIANS UNIVERSIT T W RZBURG, published 2024)
